Key:
calnexin = molecular target: T1, calnexin (UniProt P27824 21-592); assay: co-immunoprecipitation with anti-GFP from HEK293T lysates in the presence of RNase A; western blot alpha-Calnexin (control for IP specificity)
T1 construct: Specificity control
T1 sequence (looked up): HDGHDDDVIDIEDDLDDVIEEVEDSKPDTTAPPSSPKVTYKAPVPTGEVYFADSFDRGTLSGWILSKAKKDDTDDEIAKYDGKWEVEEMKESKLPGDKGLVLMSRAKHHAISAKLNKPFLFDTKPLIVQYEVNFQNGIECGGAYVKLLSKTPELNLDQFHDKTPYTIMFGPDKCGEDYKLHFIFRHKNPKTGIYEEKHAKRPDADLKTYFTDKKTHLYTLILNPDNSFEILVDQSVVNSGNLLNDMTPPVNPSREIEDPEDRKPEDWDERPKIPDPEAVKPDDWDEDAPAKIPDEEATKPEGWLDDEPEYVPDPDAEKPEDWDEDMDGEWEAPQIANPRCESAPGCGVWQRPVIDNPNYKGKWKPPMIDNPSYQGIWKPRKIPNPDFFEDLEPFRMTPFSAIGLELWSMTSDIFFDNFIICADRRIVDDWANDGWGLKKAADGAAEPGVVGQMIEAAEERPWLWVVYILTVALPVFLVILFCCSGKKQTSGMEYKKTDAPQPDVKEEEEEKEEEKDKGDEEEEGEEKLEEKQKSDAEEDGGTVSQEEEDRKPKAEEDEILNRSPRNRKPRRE
Description: Western blotting (WB) using the specified antibody, where calnexinservesto control for IP specificity. Results are representative of three independently performed experiments.
Human embryonic kidney (HEK)293T cells were transiently transfected with a mixture of two plasmids: (i) pEGFP-‘RBD’5, which produces monomeric enhanced green fluorescence protein (EGFP)-‘RBD’5 and either pmRFP-SSM-‘RBD’5 or pmRFP-‘RBD’5, which produce monomeric red fluorescence protein (mRFP)—SSM-‘RBD’5 or mRFP-‘RBD’5, respectively; or (ii) pEGFP-SSM-‘RBD’5 and either pmRFP-SSM-‘RBD’5 or pmRFP-‘RBD’5 (FIG. 1D, upper). […] Cell lysates were immunoprecipitated in the presence of RNase A using anti-GFP or, to control for nonspecific immunoprecipitation (IP), mouse(m)IgG.

mRFP-SSM-‘RBD’5 = molecular target: T2, mRFP-SSM-‘RBD’5 (human, UniProt D2GVP7 455-564 (Ailuropoda melanoleuca entry), N-terminal mRFP fusion is not carried in the letters.); assay: anti-GFP co-IP from HEK293T lysates with RNase A, western blotting
T2 construct: Expressed in HEK293T cells; also called monomeric red fluorescence protein-SSM-‘RBD’5; product of pmRFP-hSTAU1-SSM-‘RBD’5; not shown: N-terminal mRFP (monomeric DsRed from a pDsRed-Express-C1 derivative) and the vector-encoded linker
T2 sequence: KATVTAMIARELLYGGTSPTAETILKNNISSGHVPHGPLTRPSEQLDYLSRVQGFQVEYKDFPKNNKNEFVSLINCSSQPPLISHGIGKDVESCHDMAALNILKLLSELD

cellular hUPF1 [1] = molecular target: T3, cellular hUPF1 (human, UniProt Q92900-2 1-1118, limits assumed); assay: co-immunoprecipitation with anti-GFP from HEK293T lysates in the presence of RNase A; western blot alpha-UPF1
T3 construct: Endogenous protein detected by western blotting
T3 sequence (looked up): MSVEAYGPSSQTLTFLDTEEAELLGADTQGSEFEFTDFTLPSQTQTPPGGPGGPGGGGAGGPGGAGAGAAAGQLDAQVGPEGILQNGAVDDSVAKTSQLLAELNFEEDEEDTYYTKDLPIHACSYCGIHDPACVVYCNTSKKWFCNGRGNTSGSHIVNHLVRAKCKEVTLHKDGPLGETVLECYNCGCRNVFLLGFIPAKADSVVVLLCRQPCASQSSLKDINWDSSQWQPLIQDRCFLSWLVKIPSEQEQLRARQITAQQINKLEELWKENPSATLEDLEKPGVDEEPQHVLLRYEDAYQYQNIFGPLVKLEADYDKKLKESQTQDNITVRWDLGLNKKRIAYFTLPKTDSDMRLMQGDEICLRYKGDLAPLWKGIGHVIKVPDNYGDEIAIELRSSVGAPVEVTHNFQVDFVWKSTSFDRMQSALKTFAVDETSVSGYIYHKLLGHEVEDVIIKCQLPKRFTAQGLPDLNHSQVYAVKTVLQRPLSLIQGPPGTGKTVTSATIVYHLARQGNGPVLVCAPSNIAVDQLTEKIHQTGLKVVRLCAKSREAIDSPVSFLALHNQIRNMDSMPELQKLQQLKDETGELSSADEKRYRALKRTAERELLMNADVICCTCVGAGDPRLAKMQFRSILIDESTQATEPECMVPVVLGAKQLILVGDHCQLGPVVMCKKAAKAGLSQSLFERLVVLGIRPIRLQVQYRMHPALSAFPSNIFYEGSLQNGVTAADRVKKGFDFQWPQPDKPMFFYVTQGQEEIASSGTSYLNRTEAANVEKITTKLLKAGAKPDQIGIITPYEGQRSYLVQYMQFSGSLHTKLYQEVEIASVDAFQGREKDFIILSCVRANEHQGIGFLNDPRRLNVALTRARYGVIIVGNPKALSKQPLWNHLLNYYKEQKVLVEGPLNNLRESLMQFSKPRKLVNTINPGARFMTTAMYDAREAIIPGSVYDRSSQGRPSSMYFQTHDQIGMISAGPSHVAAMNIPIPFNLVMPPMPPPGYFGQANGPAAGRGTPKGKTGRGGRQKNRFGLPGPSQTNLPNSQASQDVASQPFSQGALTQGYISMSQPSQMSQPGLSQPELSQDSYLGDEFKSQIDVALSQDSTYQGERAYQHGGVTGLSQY

cellular hUPF1 [2] = molecular target: T3, cellular hUPF1; assay: anti-GFP co-IP from HEK293T lysates with RNase A, western blotting
mRFP-‘RBD’5 = molecular target: T4, mRFP-‘RBD’5 (human, UniProt O95793-2 407-476); assay: as above
T4 construct: domain: ‘RBD’5; also called monomeric red fluorescence protein-‘RBD’5; product of pmRFP-hSTAU1-‘RBD’5; not shown: N-terminal mRFP (monomeric DsRed derived from pDsRed-Express-C1) with vector linker
T4 sequence (looked up): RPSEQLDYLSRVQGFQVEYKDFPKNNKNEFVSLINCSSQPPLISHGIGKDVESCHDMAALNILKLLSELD

B1: EGFP-SSM-‘RBD’5 (other, human, UniProt O95793-2 367-476, looked up)
chain: T2 sequence
notes: range 367-476; Expressed in HEK293T cells; tested in lysates with RNase A; also called monomeric enhanced green fluorescence protein-SSM-‘RBD’5; product of pEGFP-hSTAU1-SSM-‘RBD’5; not shown: N-terminal monomeric EGFP from pEGFP-C3 (BD Biosciences Clontech) with vector linker
B1: no binding (calnexin); binds (mRFP-SSM-‘RBD’5); no binding (cellular hUPF1 [1]).

B2: EGFP-‘RBD’5 (other, human, UniProt O95793-2 407-476, looked up)
chain: T4 sequence (looked up)
notes: domain: ‘RBD’5; also called monomeric enhanced green fluorescence protein-‘RBD’5; product of pEGFP-hSTAU1-‘RBD’5; not shown: N-terminal monomeric EGFP from pEGFP-C3 with vector linker
B2: no binding (calnexin); no binding (cellular hUPF1 [2]); no binding (mRFP-‘RBD’5).

Source: patent US20130317087A1 (UNIVERSITY OF ROCHESTER, published 2013)
